Results published in US20150065381A1.
“And” between values parts separate entries of the source, which are not always exact repeats. Equal entries are not always repeated.

What was measured:
[1] = target: HIV-1 envelope clone G-011.c02 (multiclade gp160 clone panel) (HIV-1); assay: capture ELISA, original data
[2] = target: HIV-1 envelope clone G-011.c05 (multiclade gp160 clone panel) (HIV-1); assay: capture ELISA, original data
[3] = target: HIV-1 envelope of gp160 clone AG-010.c11 (HIV-1); assay: capture ELISA, original data
[4] = target: HIV-1 envelope of gp160 clone AG-010.c14 (HIV-1); assay: capture ELISA, original data
[5] = target: HIV-1 envelope of gp160 clone B-Acute-008.c11 (HIV-1); assay: capture ELISA, original data
[6] = target: HIV-1 envelope of gp160 clone B-Acute-010.c08 (HIV-1); assay: capture ELISA, original data
[7] = target: HIV-1 envelope of gp160 clone B-Acute-010.c09 (HIV-1); assay: capture ELISA, original data
[8] = target: HIV-1 envelope of gp160 clone B-Chronic-014.c02 (HIV-1); assay: capture ELISA, original data
[9] = target: HIV-1 envelope clone BF-002.c05 (multiclade gp160 clone panel) (HIV-1); assay: capture ELISA, plate 1, mAb 0.3 ug/ml
[10] = target: HIV-1 envelope clone F1-002.c11 (multiclade gp160 clone panel) (HIV-1); assay: capture ELISA, plate 1, mAb 0.3 ug/ml
[11] = target: HIV-1 envelope clone F1-002.c16 (multiclade gp160 clone panel) (HIV-1); assay: capture ELISA, plate 1, mAb 0.3 ug/ml
[12] = target: HIV-1 envelope clone G-011.c05 (multiclade gp160 clone panel) (HIV-1); assay: capture ELISA, plate 1, mAb 0.3 ug/ml
[13] = target: HIV-1 envelope of gp160 clone AG-010.c11 (HIV-1); assay: capture ELISA, plate 1, mAb 0.3 ug/ml
[14] = target: HIV-1 envelope of gp160 clone AG-010.c14 (HIV-1); assay: capture ELISA, plate 1, mAb 0.3 ug/ml
[15] = target: HIV-1 envelope of gp160 clone B-Acute-009-c08 (HIV-1); assay: capture ELISA, plate 1, mAb 0.3 ug/ml
[16] = target: HIV-1 16055 envelope (HIV-1); assay: capture ELISA, plate 2, mAb 0.8 ug/ml
[17] = target: HIV-1 JRCSF envelope (HIV-1) (UniProt P20871); assay: capture ELISA, plate 2, mAb 0.8 ug/ml
[18] = target: HIV-1 JRFL envelope (HIV-1); assay: capture ELISA, plate 2, mAb 0.8 ug/ml
[19] = target: HIV-1 envelope clone BF-002.c05 (multiclade gp160 clone panel) (HIV-1); assay: capture ELISA, plate 2, mAb 0.8 ug/ml
[20] = target: HIV-1 envelope clone BF-002.c08 (multiclade gp160 clone panel) (HIV-1); assay: capture ELISA, plate 2, mAb 0.8 ug/ml
[21] = target: HIV-1 envelope clone F1-002.c11 (multiclade gp160 clone panel) (HIV-1); assay: capture ELISA, plate 2, mAb 0.8 ug/ml
[22] = target: HIV-1 envelope clone F1-002.c16 (multiclade gp160 clone panel) (HIV-1); assay: capture ELISA, plate 2, mAb 0.8 ug/ml
[23] = target: HIV-1 envelope clone G-011.c02 (multiclade gp160 clone panel) (HIV-1); assay: capture ELISA, plate 2, mAb 0.8 ug/ml
[24] = target: HIV-1 envelope clone G-011.c05 (multiclade gp160 clone panel) (HIV-1); assay: capture ELISA, plate 2, mAb 0.8 ug/ml
[25] = target: HIV-1 envelope of gp160 clone AG-010.c11 (HIV-1); assay: capture ELISA, plate 2, mAb 0.8 ug/ml
[26] = target: HIV-1 envelope of gp160 clone AG-010.c14 (HIV-1); assay: capture ELISA, plate 2, mAb 0.8 ug/ml
[27] = target: HIV-1 envelope of gp160 clone B-Acute-008.c11 (HIV-1); assay: capture ELISA, plate 2, mAb 0.8 ug/ml
[28] = target: HIV-1 envelope of gp160 clone B-Acute-009-c08 (HIV-1); assay: capture ELISA, plate 2, mAb 0.8 ug/ml
[29] = target: HIV-1 envelope of gp160 clone B-Acute-010.c08 (HIV-1); assay: capture ELISA, plate 2, mAb 0.8 ug/ml
[30] = target: HIV-1 envelope of gp160 clone B-Acute-010.c09 (HIV-1); assay: capture ELISA, plate 2, mAb 0.8 ug/ml
[31] = target: HIV-1 envelope of gp160 clone B-Chronic-014.c02 (HIV-1); assay: capture ELISA, plate 2, mAb 0.8 ug/ml
[32] = target: BG505 envelope (gp120 monomer released from lysed pseudovirus) (HIV-1); assay: antigen capture ELISA, mAb 0.3 ug/ml, plate 1
[33] = target: aMLV envelope (from lysed pseudovirus); assay: antigen capture ELISA, mAb 0.3 ug/ml, plate 1
[34] = target: BG505 envelope (gp120 monomer released from lysed pseudovirus) (HIV-1); assay: antigen capture ELISA, mAb 2.5 ug/ml, plate 1
[35] = target: aMLV envelope (from lysed pseudovirus); assay: antigen capture ELISA, mAb 2.5 ug/ml, plate 1
[36] = target: BG505 envelope (gp120 monomer released from lysed pseudovirus) (HIV-1); assay: antigen capture ELISA, mAb 7.5 ug/ml, plate 1
[37] = target: aMLV envelope (from lysed pseudovirus); assay: antigen capture ELISA, mAb 7.5 ug/ml, plate 1
[38] = target: BG505 envelope (gp120 monomer released from lysed pseudovirus) (HIV-1); assay: antigen capture ELISA, mAb 7.5 ug/ml, plate 2
[39] = target: aMLV envelope (from lysed pseudovirus); assay: antigen capture ELISA, mAb 7.5 ug/ml, plate 2

For PGT145 (antibody), which ELISA OD (original data) [1] is on record?
Its ELISA OD (original data) is 0.077 OD.

What about the ELISA OD (original data) [2] of the same substance?
Its ELISA OD (original data) is 0.301 OD.

And the ELISA OD [3]?
The ELISA OD was 0.101 OD.

What about the ELISA OD [4] of the same substance?
Its ELISA OD is 0.081 OD.

What about the ELISA OD [5] of the same substance?
Its ELISA OD is 0.178 OD.

And the ELISA OD [6]?
The ELISA OD was 0.211 OD.

And the ELISA OD [7]?
The ELISA OD was 0.075 OD.

What about the ELISA OD [8] of the same substance?
The ELISA OD was 0.077 OD.

What about the ELISA OD [9] of the same substance?
Its ELISA OD is 0.106 OD.

And the ELISA OD [10]?
Its ELISA OD is 0.061 OD.

And the ELISA OD [11]?
The ELISA OD was 0.164 OD.

And the ELISA OD [12]?
The ELISA OD was 0.076 OD.

And the ELISA OD [13]?
Its ELISA OD is 0.06 OD.

What about the ELISA OD [14] of the same substance?
Its ELISA OD is 0.055 OD.

What about the ELISA OD [15] of the same substance?
The ELISA OD was 0.058 OD.

What about the ELISA OD [16] of the same substance?
The ELISA OD was 0.067 OD and 0.064 OD.

What about the ELISA OD [17] of the same substance?
The ELISA OD was 0.087 OD and 0.063 OD.

And the ELISA OD [18]?
The ELISA OD was 0.062 OD and 0.054 OD.

And the ELISA OD [19]?
Its ELISA OD is 0.192 OD.

And the ELISA OD [20]?
The ELISA OD was 0.057 OD.

What about the ELISA OD [21] of the same substance?
The ELISA OD was 0.067 OD.

And the ELISA OD [22]?
Its ELISA OD is 0.375 OD.

And the ELISA OD [23]?
Its ELISA OD is 0.071 OD.

What about the ELISA OD [24] of the same substance?
Its ELISA OD is 0.096 OD.

And the ELISA OD [25]?
Its ELISA OD is 0.074 OD.

And the ELISA OD [26]?
The ELISA OD was 0.074 OD.

And the ELISA OD [27]?
Its ELISA OD is 0.095 OD.

And the ELISA OD [28]?
Its ELISA OD is 0.178 OD.

And the ELISA OD [29]?
The ELISA OD was 0.125 OD.

What about the ELISA OD [30] of the same substance?
Its ELISA OD is 0.065 OD.

What about the ELISA OD [31] of the same substance?
Its ELISA OD is 0.059 OD.

And the ELISA OD [32]?
The ELISA OD was 0.066 OD.

What about the ELISA OD [33] of the same substance?
The ELISA OD was 0.057 OD and 0.116 OD.

And the ELISA OD [34]?
The ELISA OD was 0.077 OD.

And the ELISA OD [35]?
The ELISA OD was 0.062 OD and 0.068 OD.

And the ELISA OD [36]?
Its ELISA OD is 0.104 OD.

And the ELISA OD [37]?
Its ELISA OD is 0.098 OD and 0.082 OD.

What about the ELISA OD [38] of the same substance?
Its ELISA OD is 0.104 OD.

And the ELISA OD [39]?
Its ELISA OD is 0.108 OD and 0.079 OD.
